Target: bacterially expressed USF-1, P22415
Sequence (P22415 whole entry, looked up): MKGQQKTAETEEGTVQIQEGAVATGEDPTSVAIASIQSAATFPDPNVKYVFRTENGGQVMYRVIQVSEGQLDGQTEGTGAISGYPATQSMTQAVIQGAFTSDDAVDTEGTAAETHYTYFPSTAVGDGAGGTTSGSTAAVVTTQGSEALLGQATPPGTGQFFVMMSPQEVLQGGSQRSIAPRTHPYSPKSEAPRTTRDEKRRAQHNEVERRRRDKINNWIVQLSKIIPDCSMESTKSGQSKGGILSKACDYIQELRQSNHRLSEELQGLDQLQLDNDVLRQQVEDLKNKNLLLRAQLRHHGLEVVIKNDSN

B1: P/CAF (Upstate), recombinant/purified enzyme (protein)
chain: MLEEEVYSQNSPIWDQDFLSASSRTSQLGIQTVINPPPVAGTISYNSTSSSLEQPNAGSSSPACKASSGLEANPGEKRKMTDSHVLEEAKKPRVMGDIPMELINEVMSTITDPAAMLGPETNFLSAHSARDEAARLEERRGVIEFHVVGNSLNQKPNKKILMWLVGLQNVFSHQLPRMPKEYITRLVFDPKHKTLALIKDGRVIGGICFRMFPSQGFTEIVFCAVTSNEQVKGYGTHLMNHLKEYHIKHDILNFLTYADEYAIGYFKKQGFSKEIKIPKTKYVGYIKDYEGATLMGCELNPRIPYTEFSVIIKKQKEIIKKLIERKQAQIRKVYPGLSCFKDGVRQIPIESIPGIRETGWKPSGKEKSKEPRDPDQLYSTLKSILQQVKSHQSAWPFMEPVKRTEAPGYYEVIRFPMDLKTMSERLKNRYYVSKKLFMADLQRVFTNCKEYNPPESEYYKCANILEKFFFSKIKEAGLIDK
  in vitro acetylation of USF-1: USF-1 was acetylated in vitro by P/CAF (lane 3), and acetylation was not detected in the absence of P/CAF or acetyl CoA (lane 1 and 2)
